Tests used:
[1] = tested on: HeLa Kyoto; assay: solubility change mitosis vs G1/S (difference of NP-40 vs SDS log2 ratios) (log2 ratio difference); higher = more soluble in mitosis
[2] = tested on: HeLa Kyoto; assay: solubility in G1/S (NP-40 vs SDS abundance) (log2 ratio); higher = more soluble; conditions: cell cycle stage: G1/S
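Throughout, for solubility change mitosis vs G1/S (difference of NP-40 vs SDS log2 ratios): synchronized HeLa Kyoto cells (double thymidine block for G1/S, nocodazole release for mitosis), protein amounts in NP-40 versus SDS lysates quantified by mass spectrometry, three biological replicates.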
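Throughout, for solubility in G1/S (NP-40 vs SDS abundance): HeLa Kyoto cells arrested at G1/S by double thymidine block, proteins quantified by TMT10plex mass spectrometry in mild NP-40 versus SDS extracts, three biological replicates.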

| Sequence | solubility change mitosis (log2) [1] | solubility in G1/S (log2) [2] |
| --- | --- | --- |
| MEIAPQEAPPVPGADGDIEEAPAEAGSPSPASPPADGRLKAAAKRVTFPSDEDIVSGAVEPKDPWRHAQNVTVDEVIGAYKQACQKLNCRQIPKLLRQLQEFTDLGHRLDCLDLKGEKLDYKTCEALEEVFKRLQFKVVDLEQTNLDEDGASALFDMIEYYESATHLNISFNKHIGTRGWQAAAHMMRKTSCLQYLDARNTPLLDHSAPFVARALRIRSSLAVLHLENASLSGRPLMLLATALKMNMNLRELYLADNKLNGLQDSAQLGNLLKFNCSLQILDLRNNHVLDSGLAYICEGLKEQRKGLVTLVLWNNQLTHTGMAFLGMTLPHTQSLETLNLGHNPIGNEGVRHLKNGLISNRSVLRLGLASTKLTCEGAVAVAEFIAESPRLLRLDLRENEIKTGGLMALSLALKVNHSLLRLDLDREPKKEAVKSFIETQKALLAEIQNGCKRNLVLAREREEKEQPPQLSASMPETTATEPQPDDEPAAGVQNGAPSPAPSPDSDSDSDSDGEEEEEEEGERDETPCPALVPPTDSLGPGDRSPPGSPSTPTEQRISVSSPGRGHKVFVVTRVESPPERAEPPASPTPPSPPPPPSPPASPSLPPAGAIDTRDTGSSEPQPPPEPPRSGPPLPNGLKPEFALALPPEPPPGPEVKGGSCGLEHELSCSKNEKELEELLLEASQESGQETL [PPP1R37] | -0.284 | 0.0581 |
| MAEKFDHLEEHLEKFVENIRQLGIIVSDFQPSSQAGLNQKLNFIVTGLQDIDKCRQQLHDITVPLEVFEYIDQGRNPQLYTKECLERALAKNEQVKGKIDTMKKFKSLLIQELSKVFPEDMAKYRSIRGEDHPPS [MED10] | 0.446 | -0.142 |
| MDPPAVVAESVSSLTIADAFIAAGESSAPTPPRPALPRRFICSFPDCSANYSKAWKLDAHLCKHTGERPFVCDYEGCGKAFIRDYHLSRHILTHTGEKPFVCAANGCDQKFNTKSNLKKHFERKHENQQKQYICSFEDCKKTFKKHQQLKIHQCQHTNEPLFKCTQEGCGKHFASPSKLKRHAKAHEGYVCQKGCSFVAKTWTELLKHVRETHKEEILCEVCRKTFKRKDYLKQHMKTHAPERDVCRCPREGCGRTYTTVFNLQSHILSFHEESRPFVCEHAGCGKTFAMKQSLTRHAVVHDPDKKKMKLKVKKSREKRSLASHLSGYIPPKRKQGQGLSLCQNGESPNCVEDKMLSTVAVLTLG [GTF3A] | 0.0516 | -0.869 |
| MHSSNPKVRSSPSGNTQSSPKSKQEVMVRPPTVMSPSGNPQLDSKFSNQGKQGGSASQSQPSPCDSKSGGHTPKALPGPGGSMGLKNGAGNGAKGKGKRERSISADSFDQRDPGTPNDDSDIKECNSADHIKSQDSQHTPHSMTPSNATAPRSSTPSHGQTTATEPTPAQKTPAKVVYVFSTEMANKAAEAVLKGQVETIVSFHIQNISNNKTERSTAPLNTQISALRNDPKPLPQQPPAPANQDQNSSQNTRLQPTPPIPAPAPKPAAPPRPLDRESPGVENKLIPSVGSPASSTPLPPDGTGPNSTPNNRAVTPVSQGSNSSSADPKAPPPPPVSSGEPPTLGENPDGLSQEQLEHRERSLQTLRDIQRMLFPDEKEFTGAQSGGPQQNPGVLDGPQKKPEGPIQAMMAQSQSLGKGPGPRTDVGAPFGPQGHRDVPFSPDEMVPPSMNSQSGTIGPDHLDHMTPEQIAWLKLQQEFYEEKRRKQEQVVVQQCSLQDMMVHQHGPRGVVRGPPPPYQMTPSEGWAPGGTEPFSDGINMPHSLPPRGMAPHPNMPGSQMRLPGFAGMINSEMEGPNVPNPASRPGLSGVSWPDDVPKIPDGRNFPPGQGIFSGPGRGERFPNPQGLSEEMFQQQLAEKQLGLPPGMAMEGIRPSMEMNRMIPGSQRHMEPGNNPIFPRIPVEGPLSPSRGDFPKGIPPQMGPGRELEFGMVPSGMKGDVNLNVNMGSNSQMIPQKMREAGAGPEEMLKLRPGGSDMLPAQQKMVPLPFGEHPQQEYGMGPRPFLPMSQGPGSNSGLRNLREPIGPDQRTNSRLSHMPPLPLNPSSNPTSLNTAPPVQRGLGRKPLDISVAGSQVHSPGINPLKSPTMHQVQSPMLGSPSGNLKSPQTPSQLAGMLAGPAAAASIKSPPVLGSAAASPVHLKSPSLPAPSPGWTSSPKPPLQSPGIPPNHKAPLTMASPAMLGNVESGGPPPPTASQPASVNIPGSLPSSTPYTMPPEPTLSQNPLSIMMSRMSKFAMPSSTPLYHDAIKTVASSDDDSPPARSPNLPSMNNMPGMGINTQNPRISGPNPVVPMPTLSPMGMTQPLSHSNQMPSPNAVGPNIPPHGVPMGPGLMSHNPIMGHGSQEPPMVPQGRMGFPQGFPPVQSPPQQVPFPHNGPSGGQGSFPGGMGFPGEGPLGRPSNLPQSSADAALCKPGGPGGPDSFTVLGNSMPSVFTDPDLQEVIRPGATGIPEFDLSRIIPSEKPSQTLQYFPRGEVPGRKQPQGPGPGFSHMQGMMGEQAPRMGLALPGMGGPGPVGTPDIPLGTAPSMPGHNPMRPPAFLQQGMMGPHHRMMSPAQSTMPGQPTLMSNPAAAVGMIPGKDRGPAGLYTHPGPVGSPGMMMSMQGMMGPQQNIMIPPQMRPRGMAADVGMGGFSQGPGNPGNMMF [BCL9] | 0.0803 | 0.308 |
| MEEKYGGDVLAGPGGGGGLGPVDVPSARLTKYIVLLCFTKFLKAVGLFESYDLLKAVHIVQFIFILKLGTAFFMVLFQKPFSSGKTITKHQWIKIFKHAVAGCIISLLWFFGLTLCGPLRTLLLFEHSDIVVISLLSVLFTSSGGGPAKTRGAAFFIIAVICLLLFDNDDLMAKMAEHPEGHHDSALTHMLYTAIAFLGVADHKGGVLLLVLALCCKVGFHTASRKLSVDVGGAKRLQALSHLVSVLLLCPWVIVLSVTTESKVESWFSLIMPFATVIFFVMILDFYVDSICSVKMEVSKCARYGSFPIFISALLFGNFWTHPITDQLRAMNKAAHQESTEHVLSGGVVVSAIFFILSANILSSPSKRGQKGTLIGYSPEGTPLYNFMGDAFQHSSQSIPRFIKESLKQILEESDSRQIFYFLCLNLLFTFVELFYGVLTNSLGLISDGFHMLFDCSALVMGLFAALMSRWKATRIFSYGYGRIEILSGFINGLFLIVIAFFVFMESVARLIDPPELDTHMLTPVSVGGLIVNLIGICAFSHAHSHAHGASQGSCHSSDHSHSHHMHGHSDHGHGHSHGSAGGGMNANMRGVFLHVLADTLGSIGVIVSTVLIEQFGWFIADPLCSLFIAILIFLSVVPLIKDACQVLLLRLPPEYEKELHIALEKIQKIEGLISYRDPHFWRHSASIVAGTIHIQVTSDVLEQRIVQQVTGILKDAGVNNLTIQVEKEAYFQHMSGLSTGFHDVLAMTKQMESMKYCKDGTYIM [SLC30A5] | -0.241 | -0.143 |
| MVHAFLIHTLRAPNTEDTGLCRVLYSCVFGAEKSPDDPRPHGAERDRLLRKEQILAVARQVESMCRLQQQASGRPPMDLQPQSSDEQVPLHEAPRGAFRLAAENPFQEPRTVVWLGVLSLGFALVLDAHENLLLAEGTLRLLTRLLLDHLRLLAPSTSLLLRADRIEGILTRFLPHGQLLFLNDQFVQGLEKEFSAAWPR [AP5S1] | -0.153 | -0.269 |
| MALEQALQAARQGELDVLRSLHAAGLLGPSLRDPLDALPVHHAARAGKLHCLRFLVEEAALPAAARARNGATPAHDASATGHLACLQWLLSQGGCRVQDKDNSGATVLHLAARFGHPEVVNWLLHHGGGDPTAATDMGALPIHYAAAKGDFPSLRLLVEHYPEGVNAQTKNGATPLYLACQEGHLEVTQYLVQECGADPHARAHDGMTPLHAAAQMGHSPVIVWLVSCTDVSLSEQDKDGATAMHFAASRGHTKVLSWLLLHGGEISADLWGGTPLHDAAENGELECCQILVVNGAELDVRDRDGYTAADLSDFNGHSHCTRYLRTVENLSVEHRVLSRDPSAELEAKQPDSGMSSPNTTVSVQPLNFDLSSPTSTLSNYDSCSSSHSSIKGQHPPCGLSSARAADIQSYMDMLNPELGLPRGTIGKPTPPPPPPSFPPPPPPPGTQLPPPPPGYPAPKPPVGPQAADIYMQTKNKLRHVETEALKKELSSCDGHDGLRRQDSSRKPRAFSKQPSTGDYYRQLGRCPGETLAARPGMAHSEEVRARQPARAGCPRLGPAARGSLEGPSAPPQAALLPGNHVPNGCAADPKASRELPPPPPPPPPPLPEAASSPPPAPPLPLESAGPGCGQRRSSSSTGSTKSFNMMSPTGDNSELLAEIKAGKSLKPTPQSKGLTTVFSGIGQPAFQPDSPLPSVSPALSPVRSPTPPAAGFQPLLNGSLVPVPPTTPAPGVQLDVEALIPTHDEQGRPIPEWKRQVMVRKMQLKMQEEEEQRRKEEEEEARLASMPAWRRDLLRKKLEEEREQKRKEEERQKQEELRREKEQSEKLRTLGYDESKLAPWQRQVILKKGDIAKY [ESPN] | -0.0492 | -0.041 |
| METPPVNTIGEKDTSQPQQEWEKNLRENLDSVIQIRQQPRDPPTETLELEVSPDPASQILEHTQGAEKLVAELEGDSHKSHGSTSQMPEALQASDLWYCPDGSFVKKIVIRGHGLDKPKLGSCCRVLALGFPFGSGPPEGWTELTMGVGPWREETWGELIEKCLESMCQGEEAELQLPGHSGPPVRLTLASFTQGRDSWELETSEKEALAREERARGTELFRAGNPEGAARCYGRALRLLLTLPPPGPPERTVLHANLAACQLLLGQPQLAAQSCDRVLEREPGHLKALYRRGVAQAALGNLEKATADLKKVLAIDPKNRAAQEELGKVVIQGKNQDAGLAQGLRKMFG [FKBPL] | 0.144 | 0.618 |
| MLARALLLCAVLALSHTANPCCSHPCQNRGVCMSVGFDQYKCDCTRTGFYGENCSTPEFLTRIKLFLKPTPNTVHYILTHFKGFWNVVNNIPFLRNAIMSYVLTSRSHLIDSPPTYNADYGYKSWEAFSNLSYYTRALPPVPDDCPTPLGVKGKKQLPDSNEIVEKLLLRRKFIPDPQGSNMMFAFFAQHFTHQFFKTDHKRGPAFTNGLGHGVDLNHIYGETLARQRKLRLFKDGKMKYQIIDGEMYPPTVKDTQAEMIYPPQVPEHLRFAVGQEVFGLVPGLMMYATIWLREHNRVCDVLKQEHPEWGDEQLFQTSRLILIGETIKIVIEDYVQHLSGYHFKLKFDPELLFNKQFQYQNRIAAEFNTLYHWHPLLPDTFQIHDQKYNYQQFIYNNSILLEHGITQFVESFTRQIAGRVAGGRNVPPAVQKVSQASIDQSRQMKYQSFNEYRKRFMLKPYESFEELTGEKEMSAELEALYGDIDAVELYPALLVEKPRPDAIFGETMVEVGAPFSLKGLMGNVICSPAYWKPSTFGGEVGFQIINTASIQSLICNNVKGCPFTSFSVPDPELIKTVTINASSSRSGLDDINPTVLLKERSTEL [PTGS2] | -0.117 | 0.069 |
| MALRSAQGDGPTSGHWDGGAEKADFNAKRKKKVAEIHQALNSDPTDVAALRRMAISEGGLLTDEIRRKVWPKLLNVNANDPPPISGKNLRQMSKDYQQVLLDVRRSLRRFPPGMPEEQREGLQEELIDIILLILERNPQLHYYQGYHDIVVTFLLVVGERLATSLVEKLSTHHLRDFMDPTMDNTKHILNYLMPIIDQVNPELHDFMQSAEVGTIFALSWLITWFGHVLSDFRHVVRLYDFFLACHPLMPIYFAAVIVLYREQEVLDCDCDMASVHHLLSQIPQDLPYETLISRAGDLFVQFPPSELAREAAAQQQAERTAASTFKDFELASAQQRPDMVLRQRFRGLLRPEDRTKDVLTKPRTNRFVKLAVMGLTVALGAAALAVVKSALEWAPKFQLQLFP [TBC1D20] | -0.0896 | -0.427 |
| MSFLFSSRSSKTFKPKKNIPEGSHQYELLKHAEATLGSGNLRQAVMLPEGEDLNEWIAVNTVDFFNQINMLYGTITEFCTEASCPVMSAGPRYEYHWADGTNIKKPIKCSAPKYIDYLMTWVQDQLDDETLFPSKIGVPFPKNFMSVAKTILKRLFRVYAHIYHQHFDSVMQLQEEAHLNTSFKHFIFFVQEFNLIDRRELAPLQELIEKLGSKDR [MOB1A] | -0.11 | 0.448 |
| MASSGAGDPLDSKRGEAPFAQRIDPTREKLTPEQLHSMRQAELAQWQKVLPRRRTRNIVTGLGIGALVLAIYGYTFYSISQERFLDELEDEAKAARARALARASGS [COA3] | 0.902 | -0.65 |
